Laboratory results reported in patent publication US20170313770A1 (ORDER MADE MEDICAL RESEARCH, published 2017).

Molecular target: IMI4C4a antibody (monoclonal antibody produced from Mouse-Mouse hybridoma IMI4C4a)
Assay: competitive inhibition ELISA, peptide preincubated with IMI4C4a (333 pM), immobilized ICD4

IMI4C4a antibody (monoclonal antibody produced from Mouse-Mouse hybridoma IMI4C4a), sequence (VH, as listed by the source, chain 1 of 2): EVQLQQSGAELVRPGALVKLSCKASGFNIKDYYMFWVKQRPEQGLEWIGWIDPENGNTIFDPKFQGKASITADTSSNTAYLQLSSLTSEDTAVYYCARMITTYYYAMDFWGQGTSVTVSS
IMI4C4a antibody (monoclonal antibody produced from Mouse-Mouse hybridoma IMI4C4a), sequence (V domain, as listed by the source, chain 2 of 2): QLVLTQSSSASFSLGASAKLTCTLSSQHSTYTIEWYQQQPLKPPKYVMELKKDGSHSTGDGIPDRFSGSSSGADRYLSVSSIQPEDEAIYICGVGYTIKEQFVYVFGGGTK

| molar ratio to the antibody without inhibition | molar ratio to the antibody at which an inhibitory effect started | molar ratio to the antibody giving significant inhibition | Binder |
| --- | --- | --- | --- |
| > 10000 fold molar ratio relative to the antibody concentration | – | – | STIKDSTTQKAGLPSK [ICD4_235-250 (chemically synthesized peptide)] |
| – | 50 fold molar ratio relative to the antibody concentration | ≥ 500 fold molar ratio relative to the antibody concentration | TQKAGLPSKNLTVSQNQ [ICD4_242-258 (chemically synthesized peptide)] |
| > 10000 fold molar ratio relative to the antibody concentration | – | – | THCHETEESTIKDSTT [ICD4_227-242 (chemically synthesized peptide)] |
